Test results taken from the supplement of paper PMC9732359.
± gives the uncertainty stated by the source.

Assay: protein stability index of a GFP-peptide fusion (yeast GPS) (PSI 1-4); higher = more stable; sorted into four equal gates, so the index is relative within each strain
Outline: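 Each library plasmid carries Cherry plus GFP with a tiled 17-residue yeast protein peptide fused downstream, and the pooled library was carried in yeast. Mid-log cultures in leucine-free medium were sorted into four equal gates by GFP/Cherry ratio. Reads from Illumina sequencing of PCR-amplified plasmids from each gate were assigned to strains by barcodes. Per peptide, the protein stability index was computed as the summed products of gate read frequency and gate number.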

| Sequence | protein stability index (doa10∆) | protein stability index (pdr5∆) | protein stability index (san1∆) | protein stability index (ubr1∆) |
| --- | --- | --- | --- | --- |
| LSTDATSADLKSKAEEL [UBP6] | 3.17 ± 0.24 | 2.64 ± 0.13 | 2.95 ± 0.19 | 3.11 ± 0.21 |
| LPGKVNTKEEFAAAPND [SNF5] | 2.66 ± 0.084 | 2.91 ± 0.061 | 2.84 ± 0.058 | 2.85 ± 0.067 |
| IGVVSLTNGVTEHVRQN [RRP6] | 3.29 ± 0.14 | 3.42 ± 0.11 | 3.32 ± 0.099 | 3.33 ± 0.063 |
| EIPTQIYRTTRQDGSYT [ARP9] | 2.94 ± 0.081 | 3.17 ± 0.086 | 2.93 ± 0.083 | 3.06 ± 0.059 |
| KNLVKVLESRVNARDIP [CSN12] |  | 1.94 ± 0.19 | 2.03 ± 0.2 | 1.76 ± 0.16 |
| DNPLRQIPHFNNKILEK [BRR2] | 3.08 ± 0.092 | 3.1 ± 0.084 | 3.08 ± 0.086 | 3.19 ± 0.08 |
| VQCPTVIKLAKYPDYFP [ARP9] | 2.15 ± 0.079 | 1.81 ± 0.049 | 2.31 ± 0.092 | 1.82 ± 0.047 |
| YILRYLHANGASFFFMV [COB] | 1.57 ± 0.041 | 1.27 ± 0.033 | 1.39 ± 0.081 | 1.36 ± 0.038 |
| INYLLTLAITTVTNSKF [RPN2] | 2.22 ± 0.062 | 2.91 ± 0.078 | 2.1 ± 0.074 | 2.67 ± 0.067 |
| SLFELIVPIFQLISAVL [YJL039C/NUP192] | 1.86 ± 0.068 | 1.75 ± 0.051 | 1.7 ± 0.097 | 1.85 ± 0.037 |
| ENEEFITFLQTLYIGNT [ECM29] | 2.06 ± 0.055 | 2.42 ± 0.036 | 2.38 ± 0.11 | 2.22 ± 0.066 |
| KDLVTENAYDNPLADAE [PRE4] | 3.11 ± 0.09 | 3.34 ± 0.12 | 3.32 ± 0.11 | 3.21 ± 0.063 |
| DLYHFALNYENEAGRKL [SNF2] | 2.94 ± 0.16 | 3.13 ± 0.098 | 3.26 ± 0.083 | 3.76 ± 0.26 |
| GAAGAWMMNGALQILNS [FAS2] | 1.48 ± 0.046 | 1.65 ± 0.064 | 2.08 ± 0.12 | 1.68 ± 0.057 |
| IEIEDEKVSSVLSALEG [RPP2A] | 2.88 ± 0.037 | 2.29 ± 0.034 | 2.81 ± 0.029 | 2.449 ± 0.024 |
| KRQAYAVSEKAGHQTSA [RPL4A] | 2.14 ± 0.12 | 1.4 ± 0.13 | 1.65 ± 0.12 | 2.34 ± 0.078 |
| ELTKSLSIAFENGDYAA [RPN12] | 3.17 ± 0.16 | 3 ± 0.11 | 3.24 ± 0.073 | 3.24 ± 0.12 |
| VSPNDNNSANNNAHSSD [YMR153W/NUP53] | 2.91 ± 0.05 | 2.84 ± 0.06 | 2.75 ± 0.053 | 2.56 ± 0.037 |
| TIDWVEAGLQLCRQGHN [PRP8] | 2.08 ± 0.18 | 2.77 ± 0.1 | 2.08 ± 0.091 | 2.26 ± 0.085 |
| DLVRDIDIDKLIQLGVK [SRP72] |  |  | 2.71 ± 0.15 |  |
| NVMLNIYPRTVIDIEIH [SKI6] | 1.35 ± 0.039 | 1.74 ± 0.046 | 1.58 ± 0.11 | 1.76 ± 0.034 |
| ITLHPSFFGPRMKQYLK [RPB7] | 2.41 ± 0.12 | 2.47 ± 0.12 | 1.75 ± 0.21 | 2.02 ± 0.061 |
| YENKQLYFPDDYPFTQL [POP1] | 2.92 ± 0.048 | 2.99 ± 0.039 | 2.93 ± 0.043 | 3.01 ± 0.036 |
| LNVTPSKRPQLGEIPNP [SIR4] | 2.54 ± 0.072 | 2.83 ± 0.066 | 2.66 ± 0.075 | 2.88 ± 0.063 |
| VKALRNVPGVETANVAS [RPL4A] | 2.76 ± 0.069 | 3.15 ± 0.062 | 2.98 ± 0.051 | 3.01 ± 0.048 |
| RYNAKAIGSGSEGAQAE [PUP2] | 3.24 ± 0.093 | 3.14 ± 0.093 | 3.36 ± 0.062 | 2.98 ± 0.075 |
| IVPLHSPFLMGHPMTKS [SEC65] | 2.76 ± 0.083 | 2.57 ± 0.07 | 2.57 ± 0.079 | 2.79 ± 0.055 |

| Sequence | protein stability index (doa10∆) | protein stability index (pdr5∆) | protein stability index (san1∆) | protein stability index (ubr1∆) |
| --- | --- | --- | --- | --- |
| MEVLGIEAGRAALYKEV [RPO21] | 2.55 ± 0.14 | 2.9 ± 0.2 | 2.4 ± 0.16 | 2.76 ± 0.12 |
| STRASTVPNLPTTMVTN [ISW2] | 1.92 ± 0.055 | 2.38 ± 0.056 | 2.35 ± 0.058 | 2.38 ± 0.047 |
| LILSGDTTANNGKVQYF [YJL039C/NUP192] | 2.89 ± 0.091 | 2.52 ± 0.086 | 2.9 ± 0.09 | 2.95 ± 0.064 |
| KWEQTYKKPTGGIVTVR [FAS1] | 3.07 ± 0.064 | 2.04 ± 0.054 | 2.2 ± 0.1 | 2.37 ± 0.053 |
| SSSKQQSRLFINELVLE [SMC4] | 3.02 ± 0.14 | 2.95 ± 0.1 | 2.58 ± 0.16 | 3.05 ± 0.085 |
| GTVSRVNRLLSVIPLKG [RRP4] | 1.25 ± 0.058 | 1.38 ± 0.05 | 1.2 ± 0.14 | 1.23 ± 0.048 |
| LDYQETYVEELFPIVKK [YJL039C/NUP192] | 2.81 ± 0.071 | 3.07 ± 0.1 | 2.87 ± 0.1 | 2.75 ± 0.062 |
| PKVTPQMMQQAQQKLKQ [SRP54] | 1.42 ± 0.25 | 1.18 ± 0.18 |  | 1.48 ± 0.24 |
| PLDEIPVDVDFNLDLDD [REC8] | 2.7 ± 0.1 | 2.43 ± 0.066 | 2.24 ± 0.088 | 2.25 ± 0.066 |
| IVFVHSRKETSRTATWL [BRR2] | 2.53 ± 0.11 | 2.67 ± 0.12 | 2.57 ± 0.21 | 2.89 ± 0.077 |
| SVVAKQLLNGQKIVVVR [RPL16A] | 1.25 ± 0.049 | 1.36 ± 0.053 | 1.62 ± 0.11 | 1.24 ± 0.057 |
| KDSVTECSKDMKEDGLS [SIR4] | 3.21 ± 0.12 | 3.45 ± 0.066 | 3.23 ± 0.07 | 3.32 ± 0.049 |
| SVLDEQEQYQTNTFEGS [SNU114] | 3.12 ± 0.14 | 3.22 ± 0.08 | 3.26 ± 0.11 | 3.31 ± 0.071 |
| GSFKYITARSAFVEFGA [SWP82] | 2.62 ± 0.11 | 3.11 ± 0.074 | 2.96 ± 0.069 | 2.56 ± 0.056 |
| TNAKLPNVDLVTALEVL [RGR1] | 2.09 ± 0.089 | 2.28 ± 0.052 | 2.44 ± 0.07 | 2.26 ± 0.061 |
| TDSDFAKYHAKLNKKLQ [SRP68] | 2.97 ± 0.059 | 3.12 ± 0.055 | 2.84 ± 0.043 | 3 ± 0.05 |
| TLDKPNAEATKEEFSSA [CSE2] | 2.99 ± 0.11 | 3.12 ± 0.1 | 3.23 ± 0.064 | 3.13 ± 0.069 |
| KAALERLKVFEGIPPPY [RPL16A] | 2.57 ± 0.096 | 2.84 ± 0.12 | 3.09 ± 0.092 | 2.69 ± 0.085 |
| NVSENQPWQMDTNNEAD [SNF12] | 3.11 ± 0.052 | 3.26 ± 0.064 | 3.17 ± 0.042 | 3.25 ± 0.04 |
| ALNMLPSEILHLILDKL [GRR1] | 2.37 ± 0.13 | 2.07 ± 0.073 | 1.95 ± 0.13 | 2.03 ± 0.045 |
| PAKIVNFEKPKNSSQLL [RPN5] | 3.06 ± 0.075 | 3.2 ± 0.068 | 3.21 ± 0.052 | 3.2 ± 0.06 |
| ETNLQTFLPPLLLKLAS [ECM29] | 1.65 ± 0.038 | 1.85 ± 0.043 | 1.62 ± 0.063 | 2.11 ± 0.034 |
| DVLKDGENNINFQKASA [BRN1] | 3.31 ± 0.16 | 3.4 ± 0.12 | 3.51 ± 0.077 | 3.31 ± 0.11 |
| FQLVNDVMDELITSSAR [SIR3] | 3.36 ± 0.14 | 2.9 ± 0.087 | 3.42 ± 0.068 | 3.23 ± 0.071 |
| NPSEFTPNMVNSEISNL [SSN2] | 2.66 ± 0.08 | 2.5 ± 0.1 | 2.58 ± 0.08 | 2.91 ± 0.062 |
| DPWNKLKHTDYWYEQDS [RPB3] |  |  |  | 2.99 ± 0.12 |
